Kd data for 1 molecule are collected here from publication PMC7497679, “Structure-based design, synthesis, and evaluation of the biological activity of novel phosphoroorganic small molecule IAP antagonists” (Investigational New Drugs, 2020).

By Kd is commonly meant the concentration at which binding is half-saturated.

Square brackets hold non-standard residues; d marks the D form. 5(6)‑Fam = 5(6)-carboxyfluorescein; Dpm = not defined here

For the assay, the target named is T1, X-linked inhibitor of apoptosis protein (XIAP) BIR3 domain (human).
T1 construct: Neither the catalogue number, the construct limits nor the tags of the Sino Biological protein are stated; also called XIAP BIR3 protein; source: bought: Sino Biological, Beijing, China
The assay is described as follows: fluorescence polarisation; direct binding: two-fold serial dilutions of XIAP BIR3 domain (2.5 µM to 0.0763 nM) incubated 30 min with probe 4 (2 nM); r.t.; phosphate buffer pH 7.5 with γ-globulin 100 µg/mL and NaN3 0.02%; one site - total binding model. The settings on record: both partners purified.

B1: fluorescent probe H2N-Ala-Val-Pro-Dpm-Ala-Lys(5(6)-Fam)-Lys-NH2 (4) (peptide)
chain: H-AVP[Dpm]AK(5(6)‑Fam)K-NH2
modifications: reading uncertain; also: printed as H2N-Ala-Val-Pro-Dpm-Ala-Lys(5(6)-Fam)-Lys-NH2
Molecule B1 displayed a Kd of 49.9 ± 5.37 nM.
